# From patent US9850520B2, “Electrochemical detection of proteases using AC voltammetry on nanoelectrode arrays” (Kansas State University Research Foundation, priority 2013, dated 2017)
# T1: H2N—(CH2)4—CO-(SEQ ID NO:1)-NH—CH2-Fc (Homo sapiens, UniProt Q99538)
# T1 construct: purchased R&D Systems Inc. (Minneapolis, Minn.)
# T1 sequence (Q99538 18-323 limits assumed): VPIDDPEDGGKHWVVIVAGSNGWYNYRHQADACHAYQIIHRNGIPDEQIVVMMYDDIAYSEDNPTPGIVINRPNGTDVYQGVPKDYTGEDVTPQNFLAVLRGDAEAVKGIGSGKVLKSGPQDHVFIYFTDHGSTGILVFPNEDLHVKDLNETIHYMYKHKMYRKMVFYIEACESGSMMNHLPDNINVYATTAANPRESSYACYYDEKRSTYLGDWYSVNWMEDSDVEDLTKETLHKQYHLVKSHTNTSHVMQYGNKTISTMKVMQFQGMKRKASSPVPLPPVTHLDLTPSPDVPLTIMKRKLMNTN
# B1: legumain: Recombinant human legumain/asparaginyl endopeptidase (molecular weight 49 kDa) from R&D Systems (protein, UniProt Q99538 18-323, looked up)
# Legumain: T1 sequence (Q99538 18-323 limits assumed)
# Target: T1, H2N—(CH2)4—CO-(SEQ ID NO:1)-NH—CH2-Fc
# Test: ACV proteolysis kinetics of legumain on Fc-tetrapeptide immobilized on VACNF NEA
# Assay type: biochemical
# Source text: In the protease study, a tetrapeptide H2N—(CH2)4—CO-(SEQ ID NO:1)-NH—CH2-Fc is covalently attached to the exposed tip of a VACNF NEA as shown in FIG. 2. Fc provides reliable redox signals at 0.25 V vs. Ag/AgCl (3M KCl) in ACV measurements. As shown in later sections, the unique structure of VACNF NEA enables the enhanced ACV signal at over 1750 Hz AC frequency. Upon being supplied with legumain (a cancer related protease), the peptide is cleaved at the site between Asn and Leu. As a result, the Fc moiety is released from the electrode surface into bulk solution, causing the redox signal to decrease. The kinetic of the enzymatic reaction at the electrode surface can be monitored by continuously repeated ACV measurements. The advantage of this method is that the Fc label provides a characteristic redox signal which can be easily separated from the nonFaradaic background and other redox signals. However, the mechanism becomes complicated for enzymes requiring much longer peptide sequences for specific recognition. The Fc signal involves electron transfer between Fc molecule and the electrode surface, which is highly sensitive to the Fc surface distance. This may vary in a large range depending on the molecular packing of the long peptides on the electrode surface.
# For protease analysis, the tetrapeptide H2N—(CH2)4—CO-(SEQ ID NO:1)-NHCH2-Fc was covalently linked to the VACNF NEA by forming amide bond facilitated by EDC and sulfo-NHS. In order to stabilize the electronic signal, the electrode surface was reacted with 6-amino-1-hexanol to fill the remaining —COOH sites. […]
# The electrochemical measurements were performed in a TEFLON cell with a total volume of 250 μL for legumain experiments and 120 μL for kinase/phosphatase experiments. […] The average AC current was measured as the potential was swept from −0.05 to +0.65 V at 10 mV/s scan rate using a staircase waveform. […]
# The change in peak current (ip,acv) during continuously repeated ACV measurements with Fc-linked tetrapeptide immobilized on a VACNF NEA was measured. […]
# [1] = Example 4, [E0]=80.1 nM legumain
molecule,measurement,setting,value
B1,time constant of exponential decay,"Example 1, [E0]=773 nM legumain, f 1750 Hz, V0 150 mV",1076 s
same,slope of reaction rate vi vs Γsurf,[1],0.00063 s⁻¹
same,time constant of exponential decay,[1],1101 s
